Measurements from article PMC2908078, “The YEATS family member GAS41 interacts with the general transcription factor TFIIF” (BMC Molecular Biology, 2010).

Biological target: T1, His-GAS41 (human, UniProt O95619 1-227)
T1 construct: source: E. coli M15 [pRep4], pQE30, purified (Ni-NTA)
Assay: pull-down; GST-RAP30 full length or fragments d1-d3 on glutathione-sepharose 4B as bait, purified His-GAS41 (10-20 ug) as prey, over night at 4°C; immunoblot
Details: both partners purified

T1 sequence (O95619 whole entry): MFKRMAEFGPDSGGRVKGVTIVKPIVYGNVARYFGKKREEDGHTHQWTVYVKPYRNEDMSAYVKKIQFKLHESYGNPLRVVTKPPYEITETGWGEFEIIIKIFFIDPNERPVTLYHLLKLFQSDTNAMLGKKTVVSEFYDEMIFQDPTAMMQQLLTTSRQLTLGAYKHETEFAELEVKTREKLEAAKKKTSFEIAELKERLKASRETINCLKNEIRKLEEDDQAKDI

B1: GST-RAP30 d2 (RAP74 binding domain and polymerase binding domain, aa1-169) (domain or fragment, human, UniProt P13984 1-169, looked up)
chain: MAERGELDLTGAKQNTGVWLVKVPKYLSQQWAKASGRGEVGKLRIAKTQGRTEVSFTLNEDLANIHDIGGKPASVSAPREHPFVLQSVGGQTLTVFTESSSDKLSLEGIVVQRAECRPAASENYMRLKRLQIEESSKPVRLSQQLDKVVTTNYKPVANHQYNIEYERKK
notes: source: E. coli BL21 (DE3), pGEX-4T1
binding result: binds

B2: GST-RAP30 d3 (DNA binding site, aa169-249) (domain or fragment, human, UniProt P13984 169-249, looked up)
chain: KKEDGKRARADKQHVLDMLFSAFEKHQYYNLKDLVDITKQPVVYLKEILKEIGVQNVKGIHKNTWELKPEYRHYQGEEKSD
notes: as for B1
binding result: binds
